In paper PMC7144941:

T1: i-mEndoG H97A (catalytically inactive mouse endonuclease G) (mouse, UniProt O08600 42-294, H138A)
T1 sequence: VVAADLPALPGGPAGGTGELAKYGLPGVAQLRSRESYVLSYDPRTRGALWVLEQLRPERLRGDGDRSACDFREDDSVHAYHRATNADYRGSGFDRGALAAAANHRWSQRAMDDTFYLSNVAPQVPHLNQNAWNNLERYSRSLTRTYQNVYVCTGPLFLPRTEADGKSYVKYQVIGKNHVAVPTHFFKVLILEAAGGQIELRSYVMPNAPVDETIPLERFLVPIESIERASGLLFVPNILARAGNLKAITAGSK

B1: decanucleotide d(CCGGCGCCGG) (dsDNA)
DNA 1: CCGGCGCCGG
DNA 2: CCGGCGCCGG

Key:
[1] = molecular target: catalytically inactive H97A mutant of mouse endonuclease G lacking the N-terminal mitochondrial localization sequence (mouse); experiment: crystal structure
[2] = molecular target: T1, i-mEndoG H97A (catalytically inactive …); experiment: X-ray crystallography

| Molecule | stoichiometry N [1] | binding result [2] |
| --- | --- | --- |
| catalytically inactive H97A mutant of mouse endonuclease G lacking the N-terminal mitochondrial localization sequence (enzyme) | 2 | – |
| B1 | – | binds |
